Laboratory results: US20220259593A1, “CONTROL OF MAMMALIAN GENE DOSAGE USING CRISPR” (The Regents of the University of California, priority 2019, published 2022)
Changes are numbered by the printed parent chain.

B1: cr879 (nucleic acid)
guide: GTTTAAGAGCTAAGCTGGAAACAGCATAGCAAGTTTAAATAAGGCGAGTCCGTCAGCAACTTGAAAAAGTGGCACCGAGTCGGTGCT
modifications: listed as DNA, chemistry not fully specified
B2: cr852 (nucleic acid)
guide: B1 guide with G46T, C54T, G56T, C60G, T61A, T62A, G63A, A67T, G69C
modifications: listed as DNA, chemistry not fully specified
B3: cr594 (nucleic acid)
guide: B1 guide with A28T, A42G, G46T, T53C, C54T, G56T
modifications: listed as DNA, chemistry not fully specified
B4: cr558 (nucleic acid)
guide: B1 guide with G46T, C54T, G56T, A74T, C76G, G82C, T84A
modifications: listed as DNA, chemistry not fully specified
B5: cr477 (nucleic acid)
guide: B1 guide with G46T, C54T, G56C
modifications: listed as DNA, chemistry not fully specified
B6: cr219 (nucleic acid)
guide: B1 guide with G44C, G46T, C50G, C54T, G56T, A65G
modifications: listed as DNA, chemistry not fully specified
B7: cr652 (nucleic acid)
guide: B1 guide with A28C, G46T, T53G, C54T, G56T, A64G
modifications: listed as DNA, chemistry not fully specified
B8: cr380 (nucleic acid)
guide: B1 guide with G46T, C54T, G56T, A65G, C73T, G85A
modifications: listed as DNA, chemistry not fully specified
B9: cr550 (nucleic acid)
guide: B1 guide with G46T, C54T, G56T, C76A, G77A, C81T, G82T
modifications: listed as DNA, chemistry not fully specified
B10: cr684 (nucleic acid)
guide: B1 guide with G46T, C54T, G56T, C76T, G77A, C81T, G82A
modifications: listed as DNA, chemistry not fully specified
B11: cr474 (nucleic acid)
guide: B1 guide with G46T, C54T, G56T, G77T
modifications: listed as DNA, chemistry not fully specified
B12: cr439 (nucleic acid)
guide: B1 guide with T16A, G46T, C54T, G56T
modifications: listed as DNA, chemistry not fully specified
B13: cr890 (nucleic acid)
guide: B1 guide with G46T, C54T, G56T, A78C, T87C
modifications: listed as DNA, chemistry not fully specified
B14: cr278 (nucleic acid)
guide: B1 guide with G46T, T49C, C54T, G56T, G79A
modifications: listed as DNA, chemistry not fully specified
B15: cr859 (nucleic acid)
guide: B1 guide with G29C, G46T, A47T, C54T, G56T, A65G
modifications: listed as DNA, chemistry not fully specified
B16: cr199 (nucleic acid)
guide: B1 guide with G46T, C54T, G56T, A65G, G77T, C81A
modifications: listed as DNA, chemistry not fully specified
B17: cr836 (nucleic acid)
guide: B1 guide with G46T, C54T, G56T, C60T
modifications: listed as DNA, chemistry not fully specified
B18: cr695 (nucleic acid)
guide: B1 guide with G46T, T53A, C54T, A55G, G56T, A64T
modifications: listed as DNA, chemistry not fully specified
B19: cr867 (nucleic acid)
guide: B1 guide with G46T, C50T, C54T, G56T
modifications: listed as DNA, chemistry not fully specified
B20: cr164 (nucleic acid)
guide: B1 guide with G46T, C54T, G56T, A74C
modifications: listed as DNA, chemistry not fully specified
B21: cr875 (nucleic acid)
guide: B1 guide with G46T, C54T, G56T, A59C, T62G, A67C, T70G, G77C, C81G
modifications: listed as DNA, chemistry not fully specified
B22: cr779 (nucleic acid)
guide: B1 guide with G46T, C54T, G56T, C60A, G69T, C73T, C75A, G83T, G85A
modifications: listed as DNA, chemistry not fully specified
B23: cr555 (nucleic acid)
guide: B1 guide with G44T, G46T, C50A, C54T, G56T
modifications: listed as DNA, chemistry not fully specified
B24: cr568 (nucleic acid)
guide: B1 guide with G46T, C54T, G56T, A59T, T61G, A68C, T70A, C75A, G83T
modifications: listed as DNA, chemistry not fully specified
B25: cr818 (nucleic acid)
guide: B1 guide with C30G, G46T, C54T, G56T
modifications: listed as DNA, chemistry not fully specified
B26: cr119 (nucleic acid)
guide: B1 guide with G46T, C54T, G56T, G69T
modifications: listed as DNA, chemistry not fully specified
B27: cr449 (nucleic acid)
guide: B1 guide with G44C, G46T, C50G, C54T, G56T, C75G, G83C
modifications: listed as DNA, chemistry not fully specified
B28: cr426 (nucleic acid)
guide: B1 guide with G33A, G46T, T53C, C54T, G56T
modifications: listed as DNA, chemistry not fully specified
B29: cr341 (nucleic acid)
guide: B1 guide with G44T, G46T, C50A, C54T, G56T, G72C, C73T, G85A, C86G
modifications: listed as DNA, chemistry not fully specified
B30: cr443 (nucleic acid)
guide: B1 guide with T16G, G46T, C54T, G56T
modifications: listed as DNA, chemistry not fully specified
B31: cr505 (nucleic acid)
guide: B1 guide with A28T, A42G, G46T, C54T, G56T, G79T
modifications: listed as DNA, chemistry not fully specified
B32: cr819 (nucleic acid)
guide: B1 guide with A28C, G46T, A47G, T53G, C54T, G56T
modifications: listed as DNA, chemistry not fully specified
B33: cr712 (nucleic acid)
guide: B1 guide with G24C, G46T, C54T, G56T
modifications: listed as DNA, chemistry not fully specified
B34: cr484 (nucleic acid)
guide: B1 guide with G46T, C54T, G56T, G72C, G77A, C81T, C86G
modifications: listed as DNA, chemistry not fully specified
B35: cr168 (nucleic acid)
guide: B1 guide with G44A, G46T, C50T, C54T, G56T, C60A, G69T
modifications: listed as DNA, chemistry not fully specified
B36: cr508 (nucleic acid)
guide: B1 guide with G46C, C54G, G56T, T80C
modifications: listed as DNA, chemistry not fully specified
B37: cr763 (nucleic acid)
guide: B1 guide with G46T, T49C, C54T, G56T
modifications: listed as DNA, chemistry not fully specified
B38: cr805 (nucleic acid)
guide: B1 guide with A42G, G46T, C54T, G56T, A65T
modifications: listed as DNA, chemistry not fully specified
B39: cr886 (nucleic acid)
guide: B1 guide with G46T, C54T, G56T, C60A, T62A, A67T, G69T, C75G, G83C
modifications: listed as DNA, chemistry not fully specified
B40: cr457 (nucleic acid)
guide: B1 guide with G46T, C54T, G56T, G85T
modifications: listed as DNA, chemistry not fully specified
B41: cr887 (nucleic acid)
guide: B1 guide with A31C, G46T, A47C, C54T, G56T, G63C
modifications: listed as DNA, chemistry not fully specified

Tested on: K562 CRISPRi cells
Experiment: Constant region variant library pooled growth screen, K562
Format: cell-based, human
Settings: sgRNA constant region variants; activity relative to the original, un-modified constant region cr995
How it was run: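 Relative activity expresses each targeting sequence:constant region pair's phenotype over that of the unmodified constant region. Pooled growth screen ran in K562 CRISPRi cells in duplicate spinner-flask replicates, with puromycin selection and 4–8 days' growth at >2000× coverage; library paired variants with 36 targeting sequences.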

In order of falling Mean relative activity:
1. B5  1.055
2. B8  1.055
3. B24  1.054
4. B1  0.798
5. B34  0.7978
6. B25  0.7972
7. B7  0.7959
8. B16  0.7949
9. B38  0.7927
10. B26  0.7902
11. B39  0.7791
12. B6  0.7779
13. B20  0.7776
14. B30  0.7774
15. B33  0.7744
16. B27  0.7698
17. B4  0.7679
18. B9  0.7679
19. B10  0.7672
20. B32  0.7667
21. B36  0.7636
22. B15  0.7625
23. B17  0.7574
24. B2  0.7542
25. B13  0.7513
26. B22  0.7512
27. B18  0.751
28. B12  0.7506
29. B41  0.7504
30. B19  0.7502
31. B31  0.7459
32. B21  0.743
33. B3  0.7395
34. B14  0.7368
35. B29  0.7299
36. B28  0.7265
37. B37  0.7264
38. B11  0.7254
39. B40  0.7254
40. B35  0.7238
41. B23  0.719
